In PMC2213610:

Target: VASP, endogenous in human endothelial cells (human (endogenous in EA.hy926 and ECV304)) (UniProt P50552)
Assay: co-IP

Sequence of VASP, endogenous in human endothelial cells (human (endogenous in EA.hy926 and ECV304)) (P50552 whole entry): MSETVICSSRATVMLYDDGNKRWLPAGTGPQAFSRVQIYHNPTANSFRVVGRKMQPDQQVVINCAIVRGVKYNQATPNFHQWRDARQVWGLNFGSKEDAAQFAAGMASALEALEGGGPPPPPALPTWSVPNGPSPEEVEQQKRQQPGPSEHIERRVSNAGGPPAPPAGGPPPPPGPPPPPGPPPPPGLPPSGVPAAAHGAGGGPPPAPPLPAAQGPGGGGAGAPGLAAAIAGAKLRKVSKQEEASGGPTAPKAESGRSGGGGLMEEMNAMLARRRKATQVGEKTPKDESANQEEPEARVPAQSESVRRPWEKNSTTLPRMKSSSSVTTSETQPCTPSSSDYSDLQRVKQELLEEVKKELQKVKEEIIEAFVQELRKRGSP

For “αII-spectrin (SPCN), endogenous in human endothelial cells, Q13813 1-2472”, the percent of cellular SPCN coprecipitated was greater than 70%.
